Data on two molecules can be found in patent US20020082396A1 (published 2002).

In the assay the target is T1, recombinant human IL-8 (Amersham) (human, UniProt P10145 28-99, limits assumed).
T1 construct: In the ELISA it is captured by goat anti-human IL-8 polyclonal antibody on the plate; In the neutrophil assay it is 125I-labelled and non-labelled IL-8 at 4 ng/ml each; also called human interleukin-8
T1 sequence (looked up): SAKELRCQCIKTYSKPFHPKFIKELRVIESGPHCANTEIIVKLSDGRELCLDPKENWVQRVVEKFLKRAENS
As to the kind of experiment: ELISA: human IL-8 captured by goat anti-human IL-8 polyclonal antibody, COS culture medium serially diluted, AP-labelled anti-human IgG.

B1: antibody of the chimeric WS-4 L chain and version a of the reshaped human WS-4 H chain (chL/RVHa) (antibody, V domains shown)
VH: EVQLLESGGGLVQPGGSLRLSCAASGFTFSDYYLSWVRQAQGKGLELVGLIRNKANGYTREYSASVKGRLTISREDSKNTLYLQMSSLKTEDLAVYYCARENYRYDVELAYWGQGTLVTVSS
VL: DIQMTQSPASLSASVGETVTITCRASEIIYSYLAWYQQKQGKSPQLLVYNAKTLADGVSSRFSGSGSGTQFSLRISSLQPEDFGSYYCQHHFGFPRTFGGGTKLELK
notes: Human C kappa and human C gamma 1 regions (HEF-chWS4L-gk with HEF-RVHa-gg1), tested as COS cell culture medium
Regarding B1, the binding result is listed as “no binding”.

B2: reshaped human WS-4 antibody RVLa/RVHc (antibody, V domains shown)
VH: EVQLLESGGGLVQPGGSLRLSCAASGFTFSDYYLSWVRQAPGKGLELVGLIRNKANGYTREYSASVKGRLTISREDSKNTLYLQMSSLKTEDLAVYYCARENYRYDVELAYWGQGTLVTVSS
VL: DIQMTQSPSSLSASVGDRVTITCRASEIIYSYLAWYQQKPGKAPKLLIYNAKTLADGVPSRFSGSGSGTDFTFTISSLQPEDIATYYCQHHFGFPRTFGQGTKVEIK
notes: Human C kappa and human C gamma 1 regions, tested as COS cell culture medium; also called antibody having H chain version c
With B2, the binding result is given as “no binding”.
